Values of other authors, collected in PMC3265123.
Read-outs that look alike come from different tables or passages of the source.

Experiments:
[1] = target: gC1qR (Homo sapiens) (UniProt Q07021)
[2] = target: gC1qR (Homo sapiens) (UniProt Q07021); remark: listed apart in the source

Chain of UniProt Q07021 (Q07021 74-282): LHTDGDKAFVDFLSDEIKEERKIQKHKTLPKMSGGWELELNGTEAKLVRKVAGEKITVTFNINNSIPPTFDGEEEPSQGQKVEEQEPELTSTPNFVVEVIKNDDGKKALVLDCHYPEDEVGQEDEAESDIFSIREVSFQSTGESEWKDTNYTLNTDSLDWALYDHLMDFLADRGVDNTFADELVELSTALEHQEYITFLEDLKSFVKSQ

high molecular weight kininogen (from UniProt P01042)
Kd [1]: 0.8 nM | Kd [2]: 9 nM
